Test: soluble on expression in E. coli; label from the status in PepcDB or PDB records

Row | Sequence | soluble on expression in E. coli
1 | MGSDKIHHHHHHMRYHIALVGRRNSGKSSLLNMLAGQQISIVSDIKGTTTDAVAKAYELQPLGPVTFYDTAGIDDEGTLGAMRVSATRRVLFRSDMALLVVDEQGLCPSDMALIDEIRQLQMPILMVFNKADICTPKAEDIAFCQNQSLPFIVVSAATGLAGKQLKQLMVELAPAEYKQEPLLAGDLYQAGDVILCVVPIDMAAPKGRLILPQVQILREALDRSAIAMVVKETELAQALSVVTPKLVISDAQAIKQVAAIVPDAVPLTTFSTLFARFKGDLAALATGADALDTLQDGDKVLISEACSHNVQEDDIGRVKLPRWINSYTGKQLEFVVTSGHDFPNDLEQYALVIHCGACMFNRNEMLRRIRECQRRQVPITNYGVAISKLQGVLPRVLTPFNRNPQQ | not soluble
2 | GAVDLNKENRDPKYVESIVNRSQKIVDKLGLTDAKVAEDVCNVIANRYFELNDIYEIRDAKVKAVKESGLTGDAKNEALKAAENEKDAALYRSHFAFPASLSLFLNEEQIEAVKDGMTYGVVKVTYEATLDMIPSLKEEEKVQIYAWLVEAREFAMDAENSNKKHAAFGKYKGRINNYLAKRGYNLTKEREEWAKRVKARGGTL | soluble
3 | AHHHHHHGSFKILRKERLAPGINLFEIESPRIAKHAKPGQFVMIRLHEKGERIPLTIADVDISKGSITIVAQEVGKTTRELGTYEAGDYILDVLGPLGKPSHIDYFGTVVMIGGGVGVAEIYPVAKAMKEKGNYVISILGFRTKDLVFWEDKLRSVSDEVIVTTNDGSYGMKGFTTHALQKLIEEGRKIDLVHAVGPAIMMKAVAELTKPYGIKTVASLNPIMVDGTGMCGACRVTVGGEVKFACVDGPEFDAHLVDWDQLMNRLAYYRDLEKISLEKWERERRMV | soluble
4 | MSLIEERLKHYLEKQIPARDQYIEQMEREAHEQQVPIMDLLGMESLLHLLKMAAPARILEIGTAIGYSAIRMAQALPEATIVSIERDERRYEEAHKHVKALGLESRIELLFGDALQLGEKLELYPLFDVLFIDAAKGQYRRFFDMYSPMVRPGGLILSDNVLFRGLVAETDIEHKRHKQLATKIDTYNQWLLEHPQYDTRIFPVGDGIAISIKRETKGDTDDEKAEGHHHHHH | soluble
5 | MCSLSAIMLLPTKLKPAYSDKRSNSSSSSSLFFNNRRSKKKNQSIVPVARLFGPAIFESSKLKVLFLGVDEKKHPSTLPRTYTLTHSDITAKLTLAISQSINNSQLQGWANRLYRDEVVAEWKKVKGKMSLHVHCHISGGHFLLDLFAKFRYFIFCKELPVVLKAFVHGDGNLLNNYPELQEALVWVYFHSNVNEFNKVECWGPLWEAVSPDGHKTETLPEARCADECSCCFPTVSSIPWSHSLSNEGVNGYSGTQTEGIATPNPEKL | soluble
6 | MKNNPKTRYPLRLEESYAKNIQKAVKEIEKVSLYEFDKYLAPMIDDKNIVNDSNLINDGLFDAASKLIRNAQTYFLGILQNRTAQKIVRKHINSVNAFNKSNVNSQLSARGINPLQTEKWLDSYVQAKIAENISYVTNIRDDYSKKFEQVIYRGITEGKSSNEIREELVHQAGMSSDKAAFIARDQTGTILGQMNSERQKRAGFQAFRWSDSGDERVRDSHRERNGKIYFYADNPLLPGEEYNCRCVAEPVDDEELLEESIDLGLSNQEEHAVKTYVSSEAYKLNDKLRNGYQLDESDLKLIDNLDKALGKMTNYDGEVTRSMFFDSSDDLVRFANNYNLNDVVQFPEYISTTKDIYSEQDSLRFVIMSSTGKDLGSYNKSEKEVLFNRDAKFIVKDRYLLDGKPFIVLEEYHE | not soluble
7 | MSDDGSDTSFEEPHGDFDYTLLFEKFNKEVPKMEEVMKAAKKFGASHRHLINKFILEPSMSAKKMNLMFAKHLTTAIWKRHPDTVMQIQTNREEARQLSKLIVKTMNDDEGKGPKPFRPWRFVISTDEKSPTEFVTMTGCGRNSSVISEASDLTKVERALLLVILEEMISSDGTVQMDWVHSQIRHEPCKMPGPKCDIFMAKMMRQRYFLMTDENEVAEITPRILVELEPWLRAKFTGDLKTCELCRKIISRSVYTAECQKCHALCHFNCFKNATIISHQDNVECQKCNQNLSLNEVLKQIDTKKATGVPRSRDTVARSPSPDSDVPKAPSRTQRAKSKSKTPAPVDSDDDMTITPRPTRGKRNQRVPDSDSE | not soluble
8 | MLNLSSNQAAAVTVSETAELPEALEQLGLSNSRPVLVIVGGASQTSEADFLRIQSLFVEVLAPIAQSLGAYVVDGGTDAGVMRLMGDARSQINGQFPLIGVAPTAKVILPNQTTILADDATPLEPHHSHFVLIPGSKWGDESPWIVKVATLLANGLPSITVLINGGEISFLEHHHHHH | soluble
9 | MSLETVRLQRELIEAQRQTYNEMRTYFTVNGVEGVIGAVFDEGVITLRVPSEVLFAPGAVELAPGADRVLATLKDLFIRRREQNINIKGFTDDVQPSANARFKDNWEVSALRSVNVLRYFLGAGIEPARLTATGLGELDPLFPNTSDENRARNRRVEFVLERRVVREGHHHHHH | soluble
10 | MAHHHHHHMLTTYNIIWKKEEEDDSLNIEKRNRLFHEHVKEQKNDILSPSEFDLLVNDIEDLLEEQQINETEKLYKVSKSPNEKFNKKYKLSITDLSAQLWCEQQLELVLTTGKRRETEAMRLGIERHEILEKADHLIVNVEVNTREESLGYRLLNSITLLGQLFQTKKAREVWVFGIIRNYVLRGIIDELRIEYDNVTKKEYLIISDTKTRKEKKEPSLAQKRTSAIQVQTYCLILQQLKNGKADFKKLFEIYECDPLFEFTAVDLVKYKNLENLSIELNKLFMKLPKIKEEMEIVYEHEGKEFSRNLIPYFYHSTLYTINILLDYWDGKRSSDVVENSDKWKCKFCDFVKNCVRCPLDY | not soluble
11 | MSTGDSFETRFEKMDNLLRDPKSEVNSDCLLDGLDALVYDLDFPALRKNKNIDNFLSRYKDTINKIRDLRMKAEDYEVVKVIGRGAFGEVQLVRHKSTRKVYAMKLLSKFEMIKRSDSAFFWEERDIMAFANSPWVVQLFYAFQDDRYLYMVMEYMPGGDLVNLMSNYDVPEKWARFYTAEVVLALDAIHSMGFIHRDVKPDNMLLDKSGHLKLADFGTCMKMNKEGMVRCDTAVGTPDYISPEVLKSQGGDGYYGRECDWWSVGVFLYEMLVGDTPFYADSLVGTYSKIMNHKNSLTFPDDNDISKEAKNLICAFLTDREVRLGRNGVEEIKRHLFFKNDQWAWETLRDTVAPVVPDLSSDIDTSNFDDLEEDKGEEETFPIPKAFVGNQLPFVGFTYYSNRRYL | soluble
12 | MGANTKYKDSVFSLLFSDPDLLRELYCALEGVSLPADIPVTINTLRDALFMGMINDISFEIGGKLIILIEHQSTINPNMALRLLMYIARVYEKLIGDRNIYSSRLIHIPRPEFYVLYNGVTPYPDRTTLKLSDMFEKAGAFGLPEKGSAALELEVNVININEGKNEVIAKKCKTLAGYSAFVAKVRAFEKEIGDKTEAMKQAVRYCRDHDILKEFLEQNGTEVMNMLINEWNIEDAKKVWYEDGLSQGLEKGLEKGREEGREEESFSIAQNLVKLGLPIETIISATQLDPDKVKALYQQ | soluble
13 | MLYINSFLDRMGEIIRGEKSVEEADKLLDQKNIFEMFRSDCEEILNLYKSGKAEKEEVQRNFYLLKTYVVSQLSIHFERLKEFAESKGFKIEKKLDPEVINEIALYIDRVEKEV | soluble
14 | MFSVRRYRHKRNSLNIDTREITLEPADNARLLSLCGPFDDNIKQLERRLGIEINRRDNHFKLTGRPICVTAATDILRSLYVDTAPMRGQTQDIEPEQIHLAIKEARVLEQSAESVPDYGKAINIKTKRGVIKPRTPNQAQYIANILDHDITFGVGPAGTGKTYLAVAAAVDALERQEIRRILLTRPAVEAGEKLGFLPGDLSQKVDPYLRPLYDALFEMLGFEKVEKLIERNVIEVAPLAYMRGRTLNDAFIILDESQNTTIEQMKMFLTRIGFNSKAVITGDVTQIDLPRNTKSGLRHAIEVLAEVDEISFNFFHSEDVVRHPVVARIVNAYEAWEEAEQKRKAALAAERKREAQEQEQK | not soluble
15 | MGSDKIHHHHHHMMKSNENNGAVTKSFAKKMESISPFELKNKLIEMADESIKKIAHTMLNAGRGNPNWIATTPREAFFLLGKFGLEECRRVMYLPEGIAGIPQKDGIAARFETFLKTNHSQPGAELLKGTYQYMLLEHAADPDTLVHEWAEGVVGDQYPVPDRILQFTEMIVQDYLAQEMCDRRPPKGKYDLFATEGGTAAMCYVFDSLQENFLLNKGDGIALMVPVFTPYIEIPQLRRYEFNVTEISADQMTTDGLHTWQYKDEDIDRLRNPQIKALFITNPSNPPSYTLSPETAARIVDIVKKDNPNLMIITDDVYGTFSPHFRSLMAELPQNTLCVYSFSKYFGATGWRDAVIALHEENIFDRMIAHLPEEQKTILNKRYSSLTLTPEKLKFIDRMVADSRQVALNHTAGLSLPQQTQMSLFASFAILDKENRYKNKMQEIIRRRLKALWDNTGFSLVDDPLRVGYYSEIDMLVWAKIFYGEEFVSYLKKTYSPLDVVFRLANETSLVLLNGGGFAGPEWSVRVSLANLNEKDYVKIGQGIKRILDEYAVKWQESRK | not soluble
16 | MVNKMDIIPEITRKSITDLINNKERIDGRSLHEFRDISIETGVISKAEGSSRVKLGNTQIIVGVKPQIGEPFPDTPEMGVILTNSELLPMASPTFEPGPPDERSVELSRVVDRCIRESRMIDLEKLCIIEGSKVWMLFLDLHIIDYDGNLFDAAVLATVAALLDTRIPAAEVEDGEVVINREKMQPLPVNRKALMCTFAKIGNEIVLDPSLEEEDILTARISIGVTEEGSICAMQKGGEGPLTRDDVLKAVSIAVEKVPQLIEYLDKSMTP | soluble
17 | MAVASTSTSDGMLTLDLIQEEDPSPEEPTSCAESFRVDLDKSVAQLAGSRRRADSDRIQPSADRASSLSRPWEKTDKGATYTPQAPKKLTPTEKGRCASLEEILSQRDAASARTLQLRAEEPPTPALPNPGQLSRIQDLVARKLEETQELLAEVQGLGDGKRKAKDPPRSPPDSESEQLLLETERLLGEASSNWSQAKRVLQEVRELRDLYRQMDLQTPDSHLRQTTPHSQYRKSLM | soluble
18 | MPDGWRKMGVLVFYDLPVVSPEQRLAAVRFHKFLLADGFERMHYSIYARYCGSMERAATYERRVEQALPAVGHVNLLKLTDRQMVGMRKWIRGNYRAPENAEFVPPAQYQLFLEHHHHHH | not soluble
19 | MSLKITDVRVIRFRTHADRWDIGHARLRPAAEVSQTVTCIDTDAGLTGWFFGGGKHGDQDGMSPDEQRLIEGRVRDLLLGVDPFDREAVWKWMWVANLPEVAQSVIDCALWDLAGRAAGQPVYKLMGAARDKVPAYASTYPNIGPPQVYAEHALACRAEGYKAYKIHPHYFWNPDTGLPTKGRPSNIRADIETINLVREAVGPDMVLMYDVWGTYHTIEETIKVGRELERNDFYWFEHPMPEYRVESYRRLCRELSIPILAPEIAAGGVFTRAEWILQGASDMSRMDIRRGGVTGCRKTAVVCEAFGQRCEIHMAGWGNLQVMGATSQDTSEWYEKGLLAPGVDYDAPHPYLERNCDPMDAEGHVALPTAPGLGYEPIWDYIDDNRVPSEGHHHHHH | soluble
20 | MMKYTAVLDKPVTGNETTGSLPEPLLREALGAALRAFRADKGITLRELAETSRVSPGYLSELERGRKEVSSELLASVCHALGTSVSDVLIEAAGTMAMRSAEADLVRVS | not soluble
21 | MAHHHHHHMAQNPWFVKKSKTLRTSQLEKFINKFNEEYEHLMHMTRFKYIKRTLESIKENSDLIINKKTFSILRISCVAQLQPKYLNKIDDGISVYLSNFMLKANHDVEGFCLCFNKIKLKEKESRVMNNDPSIMFVKISFKLLILVLKENYEIKAKINKIEPLKIHLDIFGIVEAIFSEDMFKDFHYDSRNNRFRREGKFFSLYDIVLFTIKKITYGDNGANVKVIGYF | not soluble
